The supplement of paper PMC10126150
± gives the standard deviation of the averaged measurements.

System: ATP
Test: switch fluorescence ratio, 500 uM ATP over buffer (Cy3 cluster intensity, sum of 5 cycles each) (fold (ratio)); higher = stronger signal-on switching upon ATP binding; sequences stand for … in TCGTCGGCAGCGTCAGATGTGTATAAGAGACAGTTTTTTTTTTTTTTTTTTTTTTTTT…TC
Conditions: aptamer strand: ATP DNA aptamer (quencher-CACCTGGGGGAGTATTGCGGAGGAAGG + anchor), 100 nM annealed; ATP concentration: 500 uM
How it was run: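 After annealing to 100 nM quencher-labelled ATP aptamer, Cy3-labelled switching-strand clusters on a modified Illumina MiSeq flow-cell were imaged in selection buffer. A second image followed after 15 min with 500 uM ATP at 22 °C, and five such buffer/ATP cycles were done, each separated by NaOH stripping and re-annealing. The fluorescence ratio, averaged per switch-domain sequence, is summed target-cycle over summed buffer-cycle Cy3 intensity per cluster, with clusters outside 100-1000 RFU excluded.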
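Further: ATP exposure 15 min at 22 °C before imaging.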

| Sequence | switch fluorescence ratio |
| --- | --- |
| GGCGGGGGAA | 1.01 ± 0.059 |
| GGCGGGGGCG | 1.07 ± 0.024 |
| GGCGGGGTGG | 1.09 ± 0.12 |
| GGCGGGGTTG | 0.996 ± 0.019 |
| GGCGGGTAAT | 1.04 ± 0.09 |
| GGCGGGTGCG | 0.984 ± 0.028 |
| GGCGGTAAGA | 1 ± 0.051 |
| GGCGGTATAA | 1.01 ± 0.025 |
| GGCGGTATGG | 1.01 ± 0.026 |
| GGCGGTGGCA | 1.01 ± 0.026 |
| GGCGGTTTGT | 1 ± 0.028 |
| GGCGTAAAGT | 1.02 ± 0.036 |
| GGCGTCGAGG | 0.997 ± 0.018 |
| GGCGTGCCGA | 1.011 ± 0.0053 |
| GGCGTGTCGC | 0.9852 ± 0.0037 |
| GGCGTTGGGG | 1 ± 0.023 |
| GGCGTTTGGG | 0.991 ± 0.033 |
| GGCTAAAACT | 1.01 ± 0.015 |
| GGCTAATTGG | 0.99 ± 0.026 |
| GGCTACCTTG | 1.047 ± 0.0038 |
| GGCTAGGGGG | 1.01 ± 0.022 |
| GGCTATATTT | 0.991 ± 0.017 |
| GGCTATTAAA | 1.01 ± 0.011 |
| GGCTCAGGGG | 1.16 ± 0.035 |
| GGCTCATAGT | 0.996 ± 0.017 |

| Sequence | switch fluorescence ratio |
| --- | --- |
| GGCTCCAGCT | 0.978 ± 0.028 |
| GGCTCCGGGG | 1.03 ± 0.024 |
| GGCTCTAGGG | 0.9921 ± 0.0036 |
| GGCTCTTATT | 1.009 ± 0.0057 |
| GGCTGAATGG | 0.988 ± 0.033 |
| GGCTGATACG | 1.04 ± 0.059 |
| GGCTGGGAGG | 0.99 ± 0.014 |
| GGCTGGGATG | 1.02 ± 0.095 |
| GGCTGGGGCT | 0.973 ± 0.026 |
| GGCTGGGTAC | 1.12 ± 0.24 |
| GGCTGGTAGA | 1 ± 0.02 |
| GGCTGGTTTC | 0.9969 ± 0.0089 |
| GGCTGTCGGA | 0.997 ± 0.0034 |
| GGCTGTGGGT | 0.987 ± 0.052 |
| GGCTGTTAAG | 0.983 ± 0.0028 |
| GGCTGTTCGG | 0.988 ± 0.036 |
| GGCTGTTGGT | 0.9655 ± 0.0072 |
| GGCTTAGGCA | 1.01 ± 0.04 |
| GGCTTCGGGG | 0.98028 ± 0.00081 |
| GGCTTGGAGC | 0.996 ± 0.025 |
| GGCTTGGGAG | 0.982 ± 0.019 |
| GGCTTGGGCG | 0.983 ± 0.061 |
| GGCTTTACTA | 1 ± 0.012 |
| GGCTTTGAAG | 0.9951 ± 0.0023 |
| GGCTTTGGGT | 0.991 ± 0.014 |

| Sequence | switch fluorescence ratio |
| --- | --- |
| GGCTTTGGTC | 1.018 ± 0.0099 |
| GGCTTTGTGG | 0.992 ± 0.02 |
| GGCTTTTTTG | 0.9954 ± 0.0081 |
| GGGAAAAGGG | 0.998 ± 0.035 |
| GGGAAAATGT | 1.02 ± 0.038 |
| GGGAAACCGG | 1.06 ± 0.018 |
| GGGAAACTAA | 1.01 ± 0.031 |
| GGGAAAGCG | 1.04 ± 0.036 |
| GGGAAAGGTT | 1.01 ± 0.026 |
| GGGAAATAGC | 1.06 ± 0.036 |
| GGGAAATTGC | 1.04 ± 0.074 |
| GGGAAGAACT | 1.06 ± 0.014 |
| GGGAAGGGAG | 0.983 ± 0.028 |
| GGGAAGGGGA | 1.04 ± 0.12 |
| GGGAAGGGGG | 1 ± 0.034 |
| GGGAAGTGTG | 0.979 ± 0.024 |
| GGGAAGTTGG | 0.986 ± 0.013 |
| GGGAATACAT | 1.01 ± 0.028 |
| GGGAATCAAG | 0.9862 ± 0.0097 |
| GGGAATCGGT | 0.978 ± 0.058 |
| GGGAATCTGC | 1.01 ± 0.026 |
| GGGAATGGAT | 1.01 ± 0.029 |
| GGGAATGGGG | 0.992 ± 0.044 |
| GGGAATGGTG | 1.035 ± 0.0095 |
| GGGAATGTT | 0.992 ± 0.022 |

| Sequence | switch fluorescence ratio |
| --- | --- |
| GGGAATGTTC | 1.01 ± 0.014 |
| GGGAATTACC | 0.986 ± 0.024 |
| GGGAATTCGA | 1 ± 0.036 |
| GGGACAATGA | 1 ± 0.038 |
| GGGACAGGGA | 1.05 ± 0.066 |
| GGGACAGTGG | 1 ± 0.015 |
| GGGACATTTT | 1.026 ± 0.0086 |
| GGGACCGAAC | 1.13 ± 0.029 |
| GGGACCGACT | 1.05 ± 0.016 |
| GGGACCGTGC | 1.07 ± 0.096 |
| GGGACCGTGT | 1.01 ± 0.028 |
| GGGACGGAAC | 1.12 ± 0.03 |
| GGGACGGGGA | 0.978 ± 0.026 |
| GGGACTCGTG | 1.04 ± 0.053 |
| GGGACTGGGT | 0.999 ± 0.012 |
| GGGACTTTCT | 1.01 ± 0.0092 |
| GGGAGAAAGG | 1.011 ± 0.0067 |
| GGGAGAACGA | 0.984 ± 0.015 |
| GGGAGAAGGA | 1.05 ± 0.085 |
| GGGAGAAGGT | 0.967 ± 0.011 |
| GGGAGAGCGT | 0.966 ± 0.018 |
| GGGAGAGGGT | 1.02 ± 0.016 |
| GGGAGAGTGG | 0.9868 ± 0.0015 |
| GGGAGATATG | 0.9788 ± 0.0095 |
| GGGAGATTAA | 0.975 ± 0.013 |

| Sequence | switch fluorescence ratio |
| --- | --- |
| GGGAGATTTT | 1.01 ± 0.035 |
| GGGAGCATCG | 0.9709 ± 0.0055 |
| GGGAGCGCTT | 1.03 ± 0.012 |
| GGGAGGAGAC | 1.02 ± 0.053 |
| GGGAGGCAGA | 0.989 ± 0.065 |
| GGGAGGGAAA | 1.04 ± 0.056 |
| GGGAGGGGG | 0.965 ± 0.045 |
| GGGAGGGTTT | 0.98 ± 0.022 |
| GGGAGGTAGG | 0.991 ± 0.01 |
| GGGAGGTGGG | 1.009 ± 0.0014 |
| GGGAGTAAAG | 0.989 ± 0.013 |
| GGGAGTAAGG | 1.024 ± 0.0025 |
| GGGAGTCAGC | 1.012 ± 0.008 |
| GGGAGTCTTC | 1.04 ± 0.1 |
| GGGAGTGGCA | 1.08 ± 0.15 |
| GGGAGTTAAA | 0.972 ± 0.013 |
| GGGAGTTGG | 0.992 ± 0.017 |
| GGGAGTTGGG | 1.02 ± 0.044 |
| GGGATAACAG | 1.04 ± 0.011 |
| GGGATAAGCC | 1 ± 0.012 |
| GGGATAAGTT | 0.983 ± 0.035 |
| GGGATAGATA | 1.03 ± 0.022 |
| GGGATAGGAA | 0.993 ± 0.03 |
| GGGATAGGCC | 1.02 ± 0.032 |
| GGGATAGGGG | 0.996 ± 0.024 |

| Sequence | switch fluorescence ratio |
| --- | --- |
| GGGATAGTGC | 1.01 ± 0.021 |
| GGGATATCAG | 0.994 ± 0.017 |
| GGGATATCAT | 0.9903 ± 0.0048 |
| GGGATCAAGA | 0.998 ± 0.023 |
| GGGATCAGTA | 0.9602 ± 0.0055 |
| GGGATCGTTT | 0.982 ± 0.046 |
| GGGATGAACG | 1.04 ± 0.021 |
| GGGATGGCAT | 0.995 ± 0.034 |
| GGGATGGCCT | 0.959 ± 0.011 |
| GGGATGTGCG | 1.04 ± 0.027 |
| GGGATTAAGG | 0.999 ± 0.021 |
| GGGATTCCGT | 1.05 ± 0.042 |
| GGGATTGCGG | 1.12 ± 0.23 |
| GGGATTGGGT | 1.01 ± 0.021 |
| GGGATTTATA | 0.995 ± 0.019 |
| GGGATTTGGT | 1.02 ± 0.02 |
| GGGATTTTGC | 0.952 ± 0.015 |
| GGGCAAGGTC | 1.03 ± 0.034 |
| GGGCAAGGTG | 1.21 ± 0.12 |
| GGGCAATATG | 1.17 ± 0.06 |
| GGGCACATCC | 1.02 ± 0.025 |
| GGGCACCAGG | 1.21 ± 0.03 |
| GGGCAGCCTT | 0.99337 ± 0.0002 |
| GGGCAGGGGA | 1.17 ± 0.35 |
| GGGCAGTAGG | 1 ± 0.025 |

| Sequence | switch fluorescence ratio |
| --- | --- |
| GGGCAGTTCG | 1.02 ± 0.027 |
| GGGCATGAAG | 1.016 ± 0.0066 |
| GGGCATGTCT | 1.03 ± 0.042 |
| GGGCATTGCT | 0.9747 ± 0.0069 |
| GGGCCAGGGA | 1 ± 0.024 |
| GGGCCAGTAT | 0.963 ± 0.017 |
| GGGCCATCGT | 0.993 ± 0.026 |
| GGGCCCAAAG | 1 ± 0.021 |
| GGGCCCGAAT | 0.992 ± 0.047 |
| GGGCCCGCGT | 0.98 ± 0.011 |
| GGGCCCTTCG | 1.018 ± 0.0047 |
| GGGCCGGAAA | 1.01 ± 0.049 |
| GGGCCGGGGT | 0.993 ± 0.04 |
| GGGCCGTAGG | 0.99 ± 0.037 |
| GGGCCGTTGG | 0.976 ± 0.042 |
| GGGCCTCGGA | 0.988 ± 0.042 |
| GGGCGAGAGG | 1.02 ± 0.033 |
| GGGCGAGCCT | 1.028 ± 0.008 |
| GGGCGAGTAT | 1.016 ± 0.0029 |
| GGGCGATGCA | 1.02 ± 0.028 |
| GGGCGCCATA | 0.948 ± 0.015 |
| GGGCGGAGCG | 0.999 ± 0.036 |
| GGGCGGGATT | 1 ± 0.059 |
| GGGCGGGCAG | 0.997 ± 0.026 |
| GGGCGGGCGC | 1.06 ± 0.027 |

| Sequence | switch fluorescence ratio |
| --- | --- |
| GGGCGTTATG | 1.0238 ± 0.00033 |
| GGGCTAAAGG | 1.04 ± 0.03 |
| GGGCTAAATC | 1.01 ± 0.06 |
| GGGCTAACCT | 1.32 ± 0.043 |
| GGGCTAATAA | 1.02 ± 0.039 |
| GGGCTAATGT | 0.988 ± 0.047 |
| GGGCTACTTG | 0.9881 ± 0.0021 |
| GGGCTAGCCA | 0.979 ± 0.011 |
| GGGCTATGTC | 1.01 ± 0.038 |
| GGGCTATTTA | 1 ± 0.011 |
| GGGCTCTAAA | 1 ± 0.018 |
| GGGCTGCGGA | 0.976 ± 0.051 |
| GGGCTGGACG | 1 ± 0.043 |
| GGGCTGGATT | 1.01 ± 0.036 |
| GGGCTGGGGA | 1.01 ± 0.033 |
| GGGCTGGGGG | 1.01 ± 0.057 |
| GGGCTGGGGT | 0.997 ± 0.038 |
| GGGCTGTTTG | 0.95379 ± 2.9e-05 |
| GGGCTTAGTG | 0.993 ± 0.0066 |
| GGGCTTCCGT | 1.089 ± 0.0068 |
| GGGCTTGGCG | 1.0275 ± 0.00013 |
| GGGCTTGTGT | 0.993 ± 0.032 |
| GGGCTTTGGC | 1 ± 0.025 |
| GGGCTTTGTG | 1 ± 0.01 |
| GGGGAAAAGT | 1.01 ± 0.029 |
